Laboratory results from the supplement of paper PMC9170038.

Key:
MS2 coat protein [1] = experiment: apparent KD of MS2 coat protein, switch ON state; designed switch direction (-1 OFF switch, 1 ON switch): -1; higher = weaker reporter binding; conditions: FMN input: 0 or 200 uM; Eterna round: R93 (includes R88 designs)
Outline: (§1)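 Designed RNA switches, transcribed on-chip from Illumina sequencing clusters, were titrated with SNAP-549-labelled MS2 coat protein from 0.7 or 1.5 nM to 3 µM in twofold steps. The solution was 100 mM Tris-HCl pH 7.5, 80 mM KCl, 4 mM MgCl2, with constant ligand or without it. Apparent KD is the median over each design's normalised cluster binding-curve fits.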

MS2 coat protein [2] = experiment: apparent KD of MS2 coat protein, switch OFF state (with FMN for OFF switches, without FMN for ON switches); designed switch direction (-1 OFF switch, 1 ON switch): -1; higher = weaker reporter binding; conditions: FMN input: 0 or 200 uM; Eterna round: R93 (includes R88 designs)
Outline: as §1

| Sequence | apparent KD of MS2 coat protein (MS2 coat protein [1]) | apparent KD of MS2 coat protein (MS2 coat protein [2]) |
| --- | --- | --- |
| AGCUAGUCAGGAUAUACAAACAUGUCAAAAGACGUGAAGGGACAUGAGGAUCACCCAUGUAGAAGGGACUAGCA [Web Mod 74% 2] | 0.0522 µM | 0.217 µM |
| AAGGUACGAGGAUAUACAUAGAUACAAACACAUGUGGAUGUACAUGAGGAUCACCCAUGUAGAAGGCGUAUAUA [AJ 22] | 0.0586 µM | 0.0847 µM |
| AAAAAGGUAGGAUAUACGAAAAAAAAAAGGUGAAAAAAAAAACAUGAGGAUCACCCAUGUAGAAGGACCAAAAA [Ex 2 sub 1 70% 3] | 0.0365 µM | 0.062 µM |
| CUCUUGUGAGGAUAUUGAAGAAAAGAAGAGAAAGAAAAGAACAAGAAGGCACAUGAGGAUCACCCAUGUAAGAA [EteRNA is fun!] | 0.0379 µM | 0.0442 µM |
| AAGAAUGAAGGAUAUACAAGGAAGAAAGAAAAGAAAAGAAAACAUGAGGAUCACCCAUGUAGAAGGUCAUAGAA [EteRNA is fun!] | 0.022 µM | 0.0263 µM |
| AAAAAGAGAGGAUAUACAUGAGGAUCACCCAUGUAAAAAAGAAGAAAGAAAAAAAAAUGUAGAAGGCUCAAAAA ['Exclusion 3'] | 0.0359 µM | 0.0343 µM |
| AGUUGGCGAGGAUAUACAUGAGGAUCACCCAUGUGAGAGAAAAAAGUGAGAAAGAAAUGUAGAAGGCGCUCACA [JL Lego Mod 13] | 0.0628 µM | 0.0375 µM |
| UAUGAGCGAGGAUAUGCUUGGGACUGUCGGAAGGUGGCGGGACAUGAGGAUCACCCAUGUAGAAGGCGCGAGCG [Harteesian Tree] | 0.0598 µM | 0.0674 µM |
| AAAAAUGGAGGAUAUACAUGAGGAUCACCCAUGUGAGACCAAGAAAAAGAAAAAGAAAGUAGAAGGCCAUAAAA [Ex 3 May 24] | 0.0245 µM | 0.152 µM |
| AAAAAACAUGAGGAUCACCCAUGUGAGGAUAUCAGUAGUCAGUCCUCGGAGUGAGUACUGAGAAGGCACAUAAA [Brourd 613 Mod 2- Jieux - Exclusion 1] | 0.0659 µM | 0.113 µM |
| AAGCUGGUAGGAUAUACUAGGGCAACUAAUGCACCGAGAGGACAUGAGGAUCACCCAUGUAGAAGGGCCAGAAA [Mat - Exclusion 2 - JL mod - D63] | 0.114 µM | 0.0823 µM |
| AAUAAGUGAGGAUAUGGAAAUAAUAAAUAAAAUAAAAUAAACCAGAAGGCACAUGAGGAUCACCCAUGUAAAUA [JR_Exc004_Sub002] | 0.0244 µM | 0.022 µM |
| AAAAGGUUAGGAUAUGCGUGGAAAAAGUGUAUCUAAAAAAAACAUGAGGAUCACCCAUGUAGAAGGGACUUAAA [Banishment 5 - Jieux - Exclusion 2] | 0.0497 µM | 0.0371 µM |
| AAGAAGUCAGGAUAUGCUGCUCGUCACUUGCGUGAUGAGUAGCAGAAGGGACAUGAGGAUCACCCAUGUGGAAA [Modifying Chris (69%) Late G segment 2] | 0.123 µM | 0.246 µM |
| AAGAGUAGAGGAUAUACAUGAGGAUCACCCAUGUAAUCCAGAUAAGGAAGCAUGGCGUGUAGAAGGCUGCAUGA [MOD of Nando (MS2 Riboswitches- Exclusion 3)] | 0.0282 µM | 0.0352 µM |
| AAAAGGAUAGGAUAUACAUGAGGAUCACCCAUGUUUAUAAAUAAAAGAAAUAAAGAAAGUAGAAGGGUCAAGAA [LROPPY Exclusion 3 - v07_deltaG=3.4] | 0.0196 µM | 0.0224 µM |
| AAAGGACGAGGAUAUACAUGAGGAUCACCCAUGUAAAAAACAUAACAAAAGAACUUAUGUAGAAGGCGUCCAAA [69%, Moding Meechl, 2] | 0.0544 µM | 0.403 µM |
| GGAAAGUGAGGAUAUGCAUAACAAACACAAACACAAACAAAGCAGAAGGCACAUGAGGAUCACCCAUGUAAACA [Exclusion 4 Willow] | 0.0235 µM | 0.0223 µM |
| GUAAACCUAGGAUAUACAUGAGGAUCACCCAUGUAAAAAAUAAUAAAAAGAAAAAAAAGUAGAAGGAGGUAGAU [JR_Exc003_Sub1226] | 0.0291 µM | 0.044 µM |
| AGCAAGUGAGGAUAUGCGAAGUCAGGACAAACACUGACGAAGCAGAAGGCACAUGAGGAUCACCCAUGUAAGCA [Mat - Exaclusion 4 - Eli mod - D60] | 0.0288 µM | 0.0298 µM |
| AAAAAAGGAGGAUAUACGAACAUGUCAAAAGACGUGAAGGGACAUGAGGAUCACCCAUGUAGAAGGCUUAAAAA [JL Stem Breaker 4] | 0.0422 µM | 0.0192 µM |
| AUAGGCCUAGGAUAUACAUGAGGAUCACCCAUGUAAAUAAAUCGAUCAAAAUAAACGUGUAGAAGGAGGAAUAA [JR_Exc003_Sub205] | 0.0335 µM | 0.0383 µM |

| Sequence | apparent KD of MS2 coat protein (MS2 coat protein [1]) | apparent KD of MS2 coat protein (MS2 coat protein [2]) |
| --- | --- | --- |
| AGCAAGUCAGGAUAUACGAACAAGACAAAAGACGAGAAGGGACAUGAGGAUCACCCAUGUAGAAGGGACAAGCA [74%, Web mod - With 5 less U's] | 0.0619 µM | 0.0608 µM |
| GAGUAAGGAGGAUAUACAUGAGGAUCACCCAUGUAAAAAGGGAAAGUAGAAAAGUAGAGUAGAAGGCCUAUAGA [JR_Exc003_Sub1702] | 0.0704 µM | 0.0583 µM |
| UCCUCACAUGAGGAUCACCCAUGUGAGGAUAUGUACAUCAGGAAAAAAAAACUGAUGUACAGAAGGCACAUGGA [Design 9: Super Stable G-C 2] | 0.0159 µM | 0.0112 µM |
| AAUAACAGAGGAUAUACAAAAAUAAAAGGAAACAAAAGAAAACAUGAGGAUCACCCAUGUAGAAGGCUGAAUAA [Tetraloop BlockHead] | 0.0194 µM | 0.0203 µM |
| AACAGGACAGGAUAUACAUGAGGAUCACCCAUGUAGGAAACAAGCAGAGUACCAAACAGUAGAAGGGUCAUGGA [Ruby 29] | 0.0313 µM | 0.0503 µM |
| AGUAUCACAGGAUAUACAUAGGUGAAAAAAGUAAAUCCACUACAUGAGGAUCACCCAUGUAGAAGGGUGAUACA [Ex2 Design 177: Random 4B] | 0.0699 µM | 0.0622 µM |
| GAAAAGUGAGGAUAUACAUGAGGAUCACCCAUGUGUAUAAAAAAAUACACAAAAGAAAGUAGAAGGCACUAAAG [Mat - Exclusion 3 - Mayanna mod - D110] | 0.0231 µM | 0.0487 µM |
| AAAAAACAUGAGGAUCACCCAUGUCAGGAUAUCGUCAUAGAUGCAAAAGCAUCUAUGACGAGAAGGGACAUGCC [JL EX1 03] | 0.103 µM | 0.0646 µM |
| AAAAAACAUGAGGAUCACCCAUGUCAGGAUAUACAAAAGAAAAGAAAAAGAAAAGAAAGUAGAAGGGACAAAAA [mod1] | 0.023 µM | 0.0246 µM |
| AAGAGUACAGGAUAUAUGUGAAAAGAGUCGAAAGACUCAAAACAUGAGGAUCACCCAUGUAGAAGGGUACUCAA [Diamond 74] | 0.0525 µM | 0.0273 µM |
| AACAGGUGAGGAUAUCUGGAUAGGAAAAAGAAAACCUAUCCAGAGAAGGCACAUGAGGAUCACCCAUGUAAAAA [JL cataway mod 8] | 0.0785 µM | 0.0962 µM |
| AGAAAACAUGAGGAUCACCCAUGUAAGGAUAUGCUGAAAAACACGGAAAAAACGUGCAGCAGAAGGUACAAAGA [Mat - Exclusion 1 - Eli mod - D95] | 0.0224 µM | 0.0408 µM |
| ACUUAUGAAGGAUAUACUAGCAACAUGCACUCAACACACACACAUGAGGAUCACCCAUGUAGAAGGUCAAACAU [JR_Exc002_Sub1206] | 0.0232 µM | 0.0197 µM |
| AUAAAUCGAGGAUAUACAUGAGGAUCACCCAUGUAAAAAAAAAAAAAAUCCUCAGGAAGUAGAAGGCGAAAUAA [JR_Exc003_Sub018] | 0.0117 µM | 0.0233 µM |
| CUCAAGUAAGGAUAUGUAAGAAAAGAAGAGAAAGAAAAGAAACAGAAGGUACAUGAGGAUCACCCAUGUAAGAA [EteRNA is fun!] | 0.0304 µM | 0.0282 µM |
| GAAAAGUGAGGAUAUUCGGAUAGGAAAACGAAAACCUAUCCGAAGAAGGCACAUGAGGAUCACCCAUGUGAAAG [Mat - Exaclusion 4 - Eli mod - D43] | 0.028 µM | 0.0309 µM |
| AGCACGUCAGGAUAUACGAAAAAAAAGGGUAAAAAAAACACACAUGAGGAUCACCCAUGUAGAAGGGACAAGCA [Diamond 94] | 0.0668 µM | 0.0868 µM |
| AAGUAUAGAGGAUAUACAUAGAUACAGAUUCAUGUAGAACUACAUGAGGAUCACCCAUGUAGAAGGCUAUAAUA [AJ 34] | 0.0194 µM | 0.0279 µM |
| AAGUUGGGAGGAUAUAUAUGGACACACAUUGGUGUAGAACUACAUGAGGAUCACCCAUGUAGAAGGCCCAAAUA [AJ 57] | 0.0203 µM | 0.0331 µM |
| AGGGAACAUGAGGAUCACCCAUGUGAGGAUAUGCUAUGGAAAUAAAAAAUAAAACAUAGCAGAAGGCAUAAAAA [Mat - Exclusion 1 - Eli mod - D39] | 0.0476 µM | 0.0461 µM |
| GUAGUGUGAGGAUAUGGAUAGAAGAAGUGAAAGUAAGAGAACUAGAAGGCACAUGAGGAUCACCCAUGUAUGUG [JR_Exc004_Sub1701] | 0.0414 µM | 0.0533 µM |
| ACCUGACAUGAGGAUCACCCAUGUCAGGAUAUGCAUCUUAGGAAAAAAAAACUAAGAUGCAGAAGGGACAUGGG [Design 2: Super Stable 2] | 0.0254 µM | 0.0275 µM |
